FireProtDB (doi:10.1002/pro.2449)

B1: Guanyl-specific ribonuclease Sa, P05798 (parent)
chain: DVSGTVCLSALPPEATDTLNLIASDGPFPYSQDGVVFQNRESVLPTQSYGYYHEYTVITPGARTRGTRRIITGEATQEDYYTGDHYATFSLIDQTC
B2: Guanyl-specific ribonuclease T1, P00651 (parent)
chain: MMYSKLLTLTTLLLPTALALPSLVERACDYTCGSNCYSSSDVSTAQAAGYQLHEDGETVGSNSYPHKYNNYEGFDFSVSSPYYEWPILSSGDVYSGGSPGADRVVFNENNQLAGVITHTGASGNNFVECT

How the values were obtained:
[1] = variants of: B1; details: Kitasatospora aureofaciens; pH 7; Thermal; DSC; MOPS; transition: 2; reversible: yes; structure 1RGG; whole UniProt chain shown
[2] = variants of: B2; details: Aspergillus oryzae (strain ATCC 42149 / RIB 40), pH 7, MOPS, transition: 2, reversible: yes, structure 1YGW, whole UniProt chain shown; for denaturant m value / denaturant midpoint (higher = more stable) / unfolding free energy: 25 °C, Urea; for Tm / change of melting temperature, mutant - wild type (higher = more stable) / ddG of mutation (higher = less stable) / unfolding enthalpy (calorimetric): Thermal, DSC

| Variant | change of melting temperature, mutant - wild type (higher = more stable) [1] | ddG of mutation (higher = less stable) [1] | unfolding enthalpy (calorimetric) [1] | denaturant m value [2] | denaturant midpoint (higher = more stable) [2] | unfolding free energy [2] | Tm [2] | change of melting temperature, mutant - wild type (higher = more stable) [2] | ddG of mutation (higher = less stable) [2] | unfolding enthalpy (calorimetric) [2] |
| --- | --- | --- | --- | --- | --- | --- | --- | --- | --- | --- |
| T95A | -2.1 °C | 0.6 kcal/mol | 97 kcal/mol |  |  |  |  |  |  |  |
| S90A | 0.7 °C | -0.2 kcal/mol | 86 kcal/mol |  |  |  |  |  |  |  |
| N20A | -0.1 °C | 0 kcal/mol | 89 kcal/mol |  |  |  |  |  |  |  |
| S3A | -1.1 °C | 0.3 kcal/mol | 86 kcal/mol |  |  |  |  |  |  |  |
| S42A | 0.4 °C | -0.1 kcal/mol | 92 kcal/mol |  |  |  |  |  |  |  |
| S24A | -0.7 °C | 0.2 kcal/mol | 77 kcal/mol |  |  |  |  |  |  |  |
| S48A | 1.7 °C | -0.5 kcal/mol | 92 kcal/mol |  |  |  |  |  |  |  |
| N39A | -7.3 °C | 2 kcal/mol | 66 kcal/mol |  |  |  |  |  |  |  |
| S9A | -4.5 °C | 1.3 kcal/mol | 91 kcal/mol |  |  |  |  |  |  |  |
| S31A | 1.5 °C | -0.4 kcal/mol | 91 kcal/mol |  |  |  |  |  |  |  |
| T117A |  |  |  | 1.25 kcal/mol/M | 2.32 M | 2.9 kcal/mol | 41.9 °C | -10.6 °C | 3.2 kcal/mol | 98 kcal/mol |
| T117V |  |  |  | 1.24 kcal/mol/M | 2.07 M | 2.6 kcal/mol | 40.7 °C | -11.8 °C | 3.6 kcal/mol | 95 kcal/mol |
| T117A T119V |  |  |  | 1.21 kcal/mol/M | 2.35 M | 2.9 kcal/mol | 41.4 °C | -11 °C | 3.4 kcal/mol | 90 kcal/mol |
| T117A T119A |  |  |  | 1.21 kcal/mol/M | 1.9 M | 2.3 kcal/mol | 40.5 °C | -12 °C | 3.7 kcal/mol | 96 kcal/mol |
| T117V T119V |  |  |  | 1.32 kcal/mol/M | 2.19 M | 2.9 kcal/mol |  |  |  |  |
| T117V T119A |  |  |  | 1.33 kcal/mol/M | 1.9 M | 2.5 kcal/mol | 38.5 °C | -14 °C | 4.3 kcal/mol | 92 kcal/mol |
| T119V |  |  |  | 1.2 kcal/mol/M | 4.16 M | 5 kcal/mol | 49.3 °C | -3.2 °C | 1 kcal/mol | 97 kcal/mol |
| T119A |  |  |  | 0.91 kcal/mol/M | 4.46 M | 4.1 kcal/mol | 50.2 °C | -2.3 °C | 0.7 kcal/mol | 104 kcal/mol |
